assay: soluble on expression in E. coli; label from the status in PepcDB or PDB records

Row | Sequence | soluble on expression in E. coli
1 | GIDPFTNEAASAAGVVGGMVDSITQAINQLDEGPMGDPEGSFVDYQTTMVRTAKAIAVTVQEMVTKSNTSPEELGPLANQLTSDYGRLASQAKPAAVAAENEEIGAHIKHRVQELGHGCSALVTKAGALQCSPSDVYTKKELIECARRVSEKVSHVLAALQAGNR | soluble
2 | MSTGGFQKDQAINILLIGTDKRTGSGNDGYGDKGSAGHADTTLLLHVSKDRSNATALSIPRDLIVDVPDCPTTQEDGSTKVIPGSTGVRFNTSLGQSGRTPSCTMRTVTELTGVTPDNFMVADFNAVKTLSSAVGGVEVCLAKDIDDPDSHLNLPAGKHTVEGEEALAFVRTRHSVGFGGDLSRIELQQQFLSSLMRKLKSNDTLTSPTKMVKLAEAGTDALTVDAKLKSIGKLKDLGLELGKLDTKNLTFATVPVKDNPAEKTPVTVVLKDGPAQQVFDMVKNDVSFTEVKKQEKEKKDKEEAAVAARLEGKKSEPSEVRVRVLNGGASSGSAGRELTYLQNEAGVTKSENAGNAPADIAKTTLEYAPDQADQARALAEILGLTGAAMKPGESVTNSQGLPAMTLTLGKDFKGAGVKLDATSAKAPEDLQKSTADKVECAKLEHHHHHH | soluble
3 | LDDEDVDTVVDHCGDILEHFERLEEVPEVDAEPELVNVMRADEIADSLDQDDALANAPETEDGRF | soluble
4 | MAHHHHHHMLRRVIVGGVCRRASPSIAGRMVAARYAATIPTSTVASTTMSSSPTSRDDASTRAVVSEVPNLSFLASKTVLAETVEQTIEVCEALLNEIPKVKGAKEKHDLIDSTSNVLCLLLDPCEFVRQIHPDEEYKKHAAYAFQKGYEYMSKVNSRRDLYDVIVELDSPEGRKQLDDEEIKNVVQLKRDMESNGIHLSDALREKVTEMNIEKEDLAMRFLTEQGAKNPFATLRYLLRCRYELAKLLGFESYAEQQLRGTMLGNQQSVWHFLCGIAHKYRSAAEKELNLIRQNVGEVRNRQNITDDTRARVAHSLRRDAEPAKAEEYFSVANCIRGIQCLCSEVFGLRLEEVPFEREEVFNPDAKKFYVYDENRAFLGIIVLDMYASDMKYCQAGHLTLQLGCKPHQEALARVGLKLPERQYPVVVLTCNVGALTPAQRLPNGRFDDESTLMHPSEVTTVFHEFGHAMHTIFGQTKVQNLAGTRSSIDFVETFSQLFEHFLTSHEFLRLWAHRINTREPISFDIVMKRNAAADMFKHLDMLDQVVLSAVDQTLHGPQPYTVYFPHGQNGHLGKRTLGDSSDYGRGTYNLAKILIDVCTPLSIVTPTESGVLGTLSFEHLSGYPAGYYGYLYSLSVARRIWSKKFEKDPLNRAAGKELVQEVMRHGAACNPVEVIEKYLGDNLDEIDIWA | not soluble
5 | MAHHHHHHMLRYTPMWRCSAAAMQTLSAWLTDLAEESMAVPSATAADLQTRQNDGQGPTRKTPAQLWRELEDAATHANALRETDTLFSILQCLLLKQQYPTDVHAWARLAKQLLPYSGIEQKSVLHYPGRSDASYRRDGHPGGSSLANLSSSSDPVLTDADGGFGDDGASRRGGGGARRGGEYAVPYSLYPSRETLLLSGGVVPLSARVPCGDGRAISLFVRGFTRFVEGQLGVQPHTQLTSELLQVVKDVSGAVTEALAVNADSLQLELLLPALLDYMELLHVLDLRTATVAACGPLATEEERRDAAGATVRDDEPNGHGRSSPPRPSKPTRFLQNMVHDLAQNAMAGAARGARVVLYYLNECFAAVVEAYQADAAATFTDKMYWAQQRYLLTLTRACMWAISQHYTSATTAALSAASGSVASSPSPHVQGLRPTVATADLVATAPMNAHIQALYDHIDVLFQRNTHADNPLHLTDEEVAQLKEIHTAALLRALRIEEAAPDAYLRRALEVVDRVPASMAIEGELIAGKVRLLELDSDTVDEEGRAAIYDDLLTSLRSLVEMRPRFLRHNGAHHAAGGGAAAAASASTPADGGGGGGEEDEGDGEQLRLDAATQAILQRAHFDVITAFCAAHKEEWSNEAYNILVAHKYHGVKITNDLIRPVLEVFSRRGDCRVFSLVDLCVLYSNEPIDMHTIALLFRTCAAAGDHHRARTFLQLVNEIIHGFLVKCPASVKESLQELKLLDPPPRHLFVSTEDDLVQSALGEQQRTVRRLPTGS | not soluble
6 | MGSDKIHHHHHHMATLKRIWLALNPQEAAAWQALLTTAGLAADRQVDYTVGIFEGETLLATGSLSGNIIKEVAVTPATQHENLLAQVIQALLDRLDDDGVTHSFVYTKPTTVKFFLSLGFKQLAATDAVVLLERGYPNLTDYVASLEKQRRPEKPAAAIVMNANPITRGHAYLIETAAKVNPVVYVFVLSAERSLFTADERLALVRKVAARWPNVVVLPTNDYMVSNTTFPSYFLKERADADVAAVQARLDAALFKQAIAPVLGITRRYVGEEPLSPVTAIYNRELAATFGSAIELIVVPRLMIDGDVVSATRVRAAMAQQDWKTVQQLVYPEVYQEIKERSTHGN | not soluble
7 | GSHMMGAKMAESLRLTCLACGQANKVPSDRLAAGPKCGICGAGLITGKVAGIDPAILARAERDDLPLLVDFWAPWCGPCRQMAPQFQAAAATLAGQVRLAKIDTQAHPAVAGRHRIQGIPAFILFHKGRELARAAGARPASELVGFVRGKLGARA | soluble
8 | MISVDTMTNASSTEGISLHHISVSDLDNNCYLLTTESDEGTQGLLIDAADNAPALLDLAESAGARITAVVTTHRHFDHVRALEDVLDTTKATHFASLGDSPRLPRSADTTLGEGDTLRWAGHNLRAHILRGHTQEGLALSIKIDGIYHLFVGDSLFPRGVGKTSTPEEFNQLLSDVKTRLFDVYPDTAVVHPGHGKPTTLGTERPHLEQWRQRGW | not soluble
9 | GPLGSLGRRWGPNVQRLACIKKHLRSQGITMDELPLIGGCELDLACFFRLINEMGGMQQVTDLKKWNKLADMLRIPKTAQDRLAKLQEAYCQYLLSYDSLSPEEHRRLEKEVLMEKEILEK | soluble
10 | MASNDPGNEVSSYSPTSPSYVKFFTQSNLEKLPKYKEKKAASAKQTAPNNSNGGSEEEITCALDYLIPPPMPKNQQYRAFGSIW | soluble
11 | TQVFDLEGYGAISRAMGGTSSSYYTGNAALISNPATLSFAPDGNQFELGLDVVTTDIKVHDSHGAEAKSSTRSNNRGPYVGPQLSYVAQLDDWRFGAGLFVSSGLGTEYGSKSFLSQTENGIQTSFDNSSRLIVLRAPIGFSYQATSKLTFGASVDLVWTSLNLELLLPSSQVGALTAQGNLSGGLVPSLAGFVGTGGAAHFSLSRNSTAGGAVDAVGWGGRLGLTYKLTDNTVLGAMYNFKTSVGDLEGKATLSAISGDGAVLPLDGDIRVKNFEMPASLTLGLAHQFNERWVVAADIKRAYWGDVMDSMNVAFISQLGGIDVALPHRYQDITVASIGTAYKYNNDLTLRAGYSYAQQALDSELILPVIPAYLKRHVTFGGEYDFDKDSRINLAISFGLRERVQTPSYLAGTEMLRQSHSQINAVVSYSKNFHHHHHH | soluble
12 | SASSEVARHLLFQSHMATKTTCMSSQGSDDEQIKRENIRSLTMSGHVGFESLPDQLVNRSIQQGFCFNILCVGETGIGKSTLIDTLFNTNFEDYESSHFCPNVKLKAQTYELQESNVQLKLTIVNTVGFGDQINKEESYQPIVDYIDAQFEAYLQEELKIKRSLFTYHDSRIHVCLYFISPTGHSLKTLDLLTMKNLDSKVNIIPVIAKADTVSKTELQKFKIKLMSELVSNGVQIYQFPTDDDTIAKVNAAMNGQLPFAVVGSMDEVKVGNKMVKARQYPWGVVQVENENHCDFVKLREMLICTNMEDLREQTHTRHYELYRRCKLEEMGFTDVGPENKPVSVQETYEAKRHEFHGERQRKEEEMKQMFVQRVKEKEAILKEAERELQAKFEHLKRLHQEERMKLEEKRRLLEEEIIAFSKKKATSEIFHSQSFLATGSNLRKDKDRKNSNFL | not soluble
13 | MQFFDGYHYHGTTFEQSYRCYPASFIDKPQLESGDKIIMPPSALDRLASLHIDYPMLFELRNAGIERVTHCGVLEFIAEEGMIYMPYWMMQNLLLQEGDIVRVRNVTLPKGTYVKLQPHTTDFLDISNPKAILETALRNYSCLTSGDSIMVPYNNKKYFIDIVETKPANAISIIETDCEVDFAPPLDYKEPERPTAPSAAKGPAKAEEVVDEPEPKFNPFTGSGRRLDGRPLAYEPAPASSSKGKQPVVANGNGQSSVASSSEKATRAQGKLVFGANGNRAPKEAAPKVGAAKETKKEEQEKKDEPKFQAFSGKKYSLRG | soluble
14 | MGSDKIHHHHHHMRIPEEIIKLVDTPEFQRLRGVKQLGLANLVYPGANHTRFEHSLGTWYLARKLSLELQLPREDSLLIQLAALLHDIGHGPFSHTFERIYRDRLDFHDHMEVSRRIVEGKIQICEDGGELPDIISSLGYEPREVGELIVGKHKKRYLRMIIHGDIDVDQLDYLTRDAHYTGVAHGIIDLERLLTVMRVFNGELVIDEKGIEAVEGMLVARSLMYSRVYFHRTVKIAEGMLIRAVEFALDEGELEDFWKMTDDRLVIELEDLGDFPGDIIRRIRRRKLFKAAVIIGPEDLTAEEKKSLTTLYRSQKKRKKIESELAEIVGAREGEVMVELSIPELILSEPRLKQVEVNVLLSGGKVEPIGKVTPLASAIKRRQTPRWILLVATLPEYMEGVKRVWREVILE | not soluble
15 | MASDYKDDDDKRRRGMEGAKLSAVRIAVREAPYRQFLGRREPSVVQFPPWSDGKSLIVDQNEFHFDHAFPATISQDEMYQALILPLVDKLLEGFQCTALAYGQTGTGKSYSMGMTPPGEILPEHLGILPRALGDIFERVTARQENNKDAIQVYASFIEIYNEKPFDLLGSTPHMPMVAARCQRCTCLPLHSQADLHHILELGTRNRRVRPTNMNSNSSRSHAIVTIHVKSKTHHSRMNIVDLAGSEGVRRTGHEGVARQEGVNINLGLLSINKVVMSMAAGHTVIPYRDSVLTTVLQASLTAQSYLTFLACISPHQCDLSETLSTLRFGTSAKAAALEHHHHHH | soluble
16 | GMSNALATLASPADDIAFYEERLRAAMLTGDLKGLETLLADDLAFVDHTGCVKTKQTHLEPYRAGLLKLSRLDLSDAVVRAAGEDGRVVVVRAVTAGVYDGEAFTETLRFTRIWRRTQGPAGWKLVAGHCSVIL | soluble
17 | MLVDSFNRVIDYIRVSVTKQCNFRCQYCMPATPLNFFDNEELLPLDNVLEFLKIAIDEGVKKIRITGGEPLLRKGLDEFIAKLHAYNKEVELVLSTNGFLLKKMAKDLKNAGLAQVNVSLDSLKSDRVLKISQKDALKNTLEGIEESLKVGLKLKLNTVVIKSVNDDEILELLEYAKNRHIQIRYIEFMENTHAKSLVKGLKEREILDLIAQKYQIIEAEKPKQGSSKIYTLENGYQFGIIAPHSDDFCQSCNRIRLASDGKICPCLYYQDAIDAKEAIINKDTKNIKRLLKQSVINKPEKNMWNDKNSETPTRAFYYTGGLEHHHHHH | not soluble
18 | GSHMNGGRPPHHPYDAKDVSEYSCRELHYTRFLTDGPCRSAKPVTELVCSGQCGPARLLPNAIGRVKWWRPNGPDFRCIPDRYRAQRVQLLCPGGAAPRSRKVRLVASCKCKR | soluble
19 | MFDVLMYLFETYIHNEAELRVDQDRLERDLTDAGFDREDIYNALLWLEKLADYQDGLAEPMQLASDPLSMRIYTVEECERLDASCRGFLLFLEQIQVLNLETREMVIERVLALDTAEFDLEDLKWVILMVLFNIPGCENAYQQMEELLFEVNEGMLH | not soluble
20 | MSLLQRDLVNTTGFLRMIMEHNYEKFASVYDAVMDDSLYDLWTDFSLRHLPKSKGRNRLLELACGTGIQSVRFAQAGFDVTGLDLSQDMLAIAKKRAQSAKKKIDFIQGNMLDLSQVGQFDFVTCYSDSICYMQDEVDVGDVFKEVYDVLANDGIFIFDVHSTYQTDECFPGYSYHENADDFAMVWDTYADEAPHSVVHELTFFIQEDDGRFSRFDEVHEERTYELLTYDILLEQAGFKSFKVYADFEDKEPTKTSKRWFFVAYKEGHHHHHH | soluble
